Experimental data reported in patent US20230011916A1, “METHODS OF CANCER TREATMENT USING ANTI-OX40 ANTIBODIES IN COMBINATION WITH PI3 KINASE DELTA INHIBITORS” (BEIGENE, LTD., priority 2019, published 2023).

Target: mouse OX40-His (Cat: ab221028, Abcam) (mouse) (UniProt P47741)
Experiment: ELISA on coated mouse OX40-His

Sequence of mouse OX40-His (Cat: ab221028, Abcam) (mouse) (P47741 20-211 limits assumed): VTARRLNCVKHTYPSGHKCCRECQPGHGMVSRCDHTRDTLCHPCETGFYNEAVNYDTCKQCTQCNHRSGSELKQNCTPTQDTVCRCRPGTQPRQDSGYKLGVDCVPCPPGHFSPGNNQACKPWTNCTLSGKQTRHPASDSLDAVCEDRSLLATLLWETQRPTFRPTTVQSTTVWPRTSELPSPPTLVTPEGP

B1: 1A7.gr1 (antibody, from another filing, V domains shown)
VH: EVQLVQSGAEVKKPGASVKVSCKASGYTFTDSYMSWVRQAPGQGLEWIGDMYPDNGDSSYNQKFRERVTITRDTSTSTAYLELSSLRSEDTAVYYCVLAPRWYFSVWGQGTLVTVSS
VL: DIQMTQSPSSLSASVGDRVTITCRASQDISNYLNWYQQKPGKAPKLLIYYTSRLRSGVPSRFSGSGSGTDFTLTISSLQPEDFATYYCQQGHTLPPTFGQGTKVEIK
- EC50: 0.11 µg/mL
